Reference: patent publication US20240124560A1
Residue numbers refer to the chain shown, from its start. Where two headings read alike, the source gives them in different places.

B1: H4K3_RS73PE Fab (Fab, V domains shown)
VH: KVQLVQSGAELKKPWSSVRVSCKASGGSFSSYAFNWVRQAPGQRLEWLGGIVPLVSSTNYAQRFRGRVTISADPETSTVYLEMTGLTSADTAVYFCAREGEGWFGRPLRAFEFWGQGTLVTVST
VL: EIVLTQSPGTFALSPGERATLSCRASQSVSGGALAWYQQKAGQAPRLLIYDTSGRATGVPGRFSGSGSETDFSLTISRLEPEDFAVYYCQQYGTSQSTFGQGTRLETR
B2: H4K3_5M (antibody, V domains shown)
VH: B1 VH with S28E, F29P, S30E
VL: B1 VL
B3: H4K3_SFS28EPE (antibody, V domains shown)
VH: B1 VH with S28E, F29P, S30E, P74R, E75S
VL: B1 VL
B4: PGZL1.H4K3 Fab (Fab, V domains shown)
VH: B1 VH with P74R, E75S
VL: B1 VL with D51G
B5: H4K3_RS73PE (antibody, V domains shown)
VH: B1 VH
VL: B1 VL
B6: H4K3_5M Fab (Fab, V domains shown)
VH: B1 VH with S28E, F29P, S30E
VL: B1 VL
B7: PGZL1.H4K3 (antibody, V domains shown)
VH: B1 VH with P74R, E75S
VL: B1 VL with D51G
B8: H4K3_SFS28EPE Fab (Fab, V domains shown)
VH: B1 VH with S28E, F29P, S30E, P74R, E75S
VL: B1 VL
B9: PGZL1 (antibody, V domains shown)
VH: EVQLVQSGGEVKRPGSSVTVSCKATGGTFSTLAFNWVRQAPGQGPEWMGGIVPLFSIVNYGQKFQGRLTIRADKSTTTVFLDLSGLTSADTATYYCAREGEGWFGKPLRAFEFWGQGTVITVSS
VL: DVVMTQSPGTLSLSPGERATLSCRASQSVSGGALAWYQQKPGQAPRLLIYDTSSRPTGVPGRFSGSGSGTDFSLTISRLEPEDFAVYYCQQYGTSQSTFGQGTRLEIK
B10: PGZL1 Fab (Fab, V domains shown)
VH: B9 VH
VL: B9 VL

Columns and labels:
[1] = biological target: MPER peptide PDT-081 (HIV-1); experiment: BLI on PDT-081
[2] = biological target: MPER peptide PDT-081 (HIV-1)
[3] = biological target: MPER peptide PDT-081 (HIV-1); experiment: ELISA on PDT-081
[4] = biological target: MPER peptide PDT-081 (HIV-1); experiment: BLI (Octet RED96), Fab over biotinylated peptide on streptavidin sensors
[5] = biological target: MPER peptide PDT-081 (HIV-1); experiment: ELISA on MPER (654-683) peptide, antibody titrated

Row | Binder | Kd [1] | koff [1] | kon [1] | Kd [2] | EC50 [3] | Fold Increase (ELISA EC50 over H4K3) [3] | further results
1 | B1 | 12.8 nM | 0.00051 s⁻¹ | 39000 M⁻¹ s⁻¹ | 12.8 nM |  |  | 
2 | B2 |  |  |  |  | 0.083 µg/mL | 2.1 fold | 
3 | B3 |  |  |  |  | 0.076 µg/mL | 2 fold | 
4 | B4 |  | 0.00051 s⁻¹ | 68000 M⁻¹ s⁻¹ |  |  |  | Kd [4]: 7.5 nM; off rate faster than that of PGZL1 [4]: 8%; on rate faster than that of PGZL1 [4]: 24%
5 | B5 |  |  |  |  | 0.09 µg/mL | 2.3 fold | 
6 | B6 | 23.4 nM | 0.00067 s⁻¹ | 29000 M⁻¹ s⁻¹ | 23.4 nM |  |  | 
7 | B7 |  |  |  |  | 0.039 µg/mL |  | 
8 | B8 | 15.1 nM | 0.00054 s⁻¹ | 36000 M⁻¹ s⁻¹ | 15.1 nM |  |  | 
9 | B9 |  |  |  |  |  |  | EC50 (read off the curve) [5]: 0.02 µg/mL
10 | B10 |  |  |  |  |  |  | Kd [4]: 9.9 nM
